The values that follow come from publication PMC7145526, “The mRNA repressor TRIM71 cooperates with Nonsense-Mediated Decay factors to destabilize the mRNA of CDKN1A/p21”.

The target in this data set is T1, Flag-TRIM71-NHL (Homo sapiens, UniProt Q2Q1W2 585-868).
T1 sequence: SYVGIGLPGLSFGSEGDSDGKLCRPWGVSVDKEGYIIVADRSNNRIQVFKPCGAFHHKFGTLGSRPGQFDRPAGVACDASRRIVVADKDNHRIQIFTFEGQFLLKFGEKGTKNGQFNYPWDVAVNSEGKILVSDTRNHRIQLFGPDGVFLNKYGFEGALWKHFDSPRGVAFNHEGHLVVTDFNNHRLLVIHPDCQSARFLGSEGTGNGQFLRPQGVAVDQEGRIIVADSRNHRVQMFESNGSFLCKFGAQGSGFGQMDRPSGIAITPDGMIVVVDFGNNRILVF
Put plainly: fluorescence polarization; 1x TBST, 30 min, RT; 100 nM 5'-Cy3 RNA, increasing protein concentrations; pH and salt not given. Conditions: protein: recombinant; tags: Flag; label: 5'-Cy3; hairpin (disruptive mutation).

For the molecule GUCUUGUCAAGGC (structured_RNA) [TRE M#3 (SL M#3), loop position III G to C], the binding result is reported as “no binding”.
